# Results taken from patent US20230212587A1, “Mutant Hydroxyphenylpyruvate Dioxygenase Polypeptide, Encoding Gene Thereof and Use Therefor” (Beijing Dabeinong Biotechnology Co., Ltd., priority 2019, published 2023).
# System: Arabidopsis thaliana T1 plants
# Experiment: Topramezone tolerance of transgenic Arabidopsis thaliana T1 plants (pesticide damage grade by bleached leaf area, score, resistance evaluation)
# Format: in vivo
# Settings: HPPDs from different species, 7 DAT; for Classification and statistics of pesticide damage grade Grade 0 / Classification and statistics of pesticide damage grade Grade 1 / Classification and statistics of pesticide damage grade Grade 2 / Classification and statistics of pesticide damage grade Grade 3: number of plants (of 16) in this grade; for Scores: score for pesticide damage 0-100
# Procedure, shortened: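 Eighteen days after sowing, wild-type and HPPD-transgenic T1 Arabidopsis receive a topramezone spray at 1×, 2× or 4× field rate (25–100 g ai/ha) or water. Seven days later each plant is graded by its proportion of bleached leaf area.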
Molecule,Classification and statistics of pesticide damage grade Grade 0 (topramezone 25 g ai/ha (1x)),Classification and statistics of pesticide damage grade Grade 1 (topramezone 25 g ai/ha (1x)),Classification and statistics of pesticide damage grade Grade 2 (topramezone 25 g ai/ha (1x)),Classification and statistics of pesticide damage grade Grade 3 (topramezone 25 g ai/ha (1x)),Classification and statistics of pesticide damage grade Grade 0 (topramezone 100 g ai/ha (4x)),Classification and statistics of pesticide damage grade Grade 1 (topramezone 100 g ai/ha (4x)),Classification and statistics of pesticide damage grade Grade 2 (topramezone 100 g ai/ha (4x)),Classification and statistics of pesticide damage grade Grade 3 (topramezone 100 g ai/ha (4x)),Scores (topramezone 25 g ai/ha (1x)),Scores (topramezone 100 g ai/ha (4x)),Resistance evaluation (topramezone 25 g ai/ha (1x)),Resistance evaluation (topramezone 100 g ai/ha (4x))
"HvHPPDm-F372A-02: Hordeum vulgare HPPD mutant F372A, SEQ ID NO: 54 (protein, HvHPPDm-F372A Amino Acid Sequence) MPPTPTTPAATGAAAAVTPEHARPHRMVRFNPRSDRFHTLSFHHVEFWCADAASAAGRFAFALGAPLAARSDLSTGNSAHASQLLRSGSLAFLFTAPYANGCDAATASLPSFSADAARRFSADHGIAVRSVALRVADAAEAFRASRRRGARPAFAPVDLGRGFAFAEVELYGDVVLRFVSHPDGTDVPFLPGFEGVTNPDAVDYGLTRFDHVVGNVPELAPAAAYIAGFTGFHEFAEFTAEDVGTTESGLNSVVLANNSEGVLLPLNEPVHGTKRRSQIQTFLEHHGGPGVQHIAVASSDVLRTLRKMRARSAMGGFDFLPPPLPKYYEGVRRLAGDVLSEAQIKECQELGVLVDRDDQGVLLQIATKPVGDRPTLFLEMIQRIGCMEKDERGEEYQKGGCGGFGKGNFSELFKSIEDYEKSLEAKQSAAVQGS",15,1,0,0,8,8,0,0,2,17,highly resistant (highly resistant plants (scores 0-15)),moderately resistant (moderately resistant plants (scores 16-33))
"SiHPPD-02: native Setaria italica HPPD, SEQ ID NO: 57 (protein, listed as Setaria italica, SiHPPD Amino Acid Sequence) MPPTPTPAAAAPGAAAAPAAGDQAAFRLVGHRGFVRVNPRSDRFHTLSFHHVELWCADATSAAGRFSFGLGAPLAARSDLSTGNSAHASLLLRSGSLAFLFTAPYAHGVDAATASLPSFSAPAARSFAADHGLAVRAIGLRVADAEDAFRASVAAGARPAFKPVELGLGFRLAEVELYGDVVLRYVSYPDAEDAPFLPGFENVNNPGALNYGLRRFDHIVGNVPELAPVAAYVAGFTGFHEFAEFTAEDVGTAESGLNSMVLANNSETVLIPLNEPVHGTKRRSQIQTFLDHNGGPGVQHIALASDDVLRTLREMQARSAMGGFEFMAAPPPDYYEGVRRRAGDVLSEAQIKECQELGVLVDRDDQGVLLQIFTKPVGDRQTLFLEIIQRIGCMEKDEQGQEYQKGGCGGFGKGNFSQLFKSIEDYEKSLESKQAAAVQGS",0,0,0,16,0,0,0,16,100,100,non-resistant (non-resistant plants (scores 68-100)),non-resistant (non-resistant plants (scores 68-100))
"SiHPPDm-F372A-02: Setaria italica HPPD mutant F372A, SEQ ID NO: 60 (protein, SiHPPDm-F372A Amino Acid Sequence) MPPTPTPAAAAPGAAAAPAAGDQAAFRLVGHRGFVRVNPRSDRFHTLSFHHVELWCADATSAAGRFSFGLGAPLAARSDLSTGNSAHASLLLRSGSLAFLFTAPYAHGVDAATASLPSFSAPAARSFAADHGLAVRAIGLRVADAEDAFRASVAAGARPAFKPVELGLGFRLAEVELYGDVVLRYVSYPDAEDAPFLPGFENVNNPGALNYGLRRFDHIVGNVPELAPVAAYVAGFTGFHEFAEFTAEDVGTAESGLNSMVLANNSETVLIPLNEPVHGTKRRSQIQTFLDHNGGPGVQHIALASDDVLRTLREMQARSAMGGFEFMAAPPPDYYEGVRRRAGDVLSEAQIKECQELGVLVDRDDQGVLLQIATKPVGDRQTLFLEIIQRIGCMEKDEQGQEYQKGGCGGFGKGNFSQLFKSIEDYEKSLESKQAAAVQGS",13,2,1,0,6,8,2,0,8,25,highly resistant (highly resistant plants (scores 0-15)),moderately resistant (moderately resistant plants (scores 16-33))
"SbHPPD-02: native Sorghum bicolor HPPD, SEQ ID NO: 63 (protein, Sorghum bicolor; SbHPPD Amino Acid Sequence) MPPTPTTAAATGAAVAAASAEQAAFRLVGHRNFVRVNPRSDRFHTLAFHHVELWCADAASAAGRFSFGLGAPLAARSDLSTGNTAHASLLLRSGALAFLFTAPYAHGADAATASLPSFSAAEARRFAADHGLAVRAVALRVADAEDAFRASVAAGARPAFEPVELGLGFRLAEVELYGDVVLRYVSYPDDADASFLPGFVGVTSPGAADYGLRRFDHIVGNVPELAPAAAYFAGFTGFHEFAEFTAEDVGTTESGLNSMVLANNAENVLLPLNEPVHGTKRRSQIQTYLDHHGGPGVQHMALASDDVLRTLREMQARSAMGGFEFMAPPAPEYYDGVRRRAGDVLTEAQIKECQELGVLVDRDDQGVLLQIFTKPVGDRPTLFLEIIQRIGCMEKDEKGQEYQKGGCGGFGKGNFSQLFKSIEDYEKSLEAKQAAAAQGS",0,0,0,16,0,0,0,16,100,100,non-resistant (non-resistant plants (scores 68-100)),non-resistant (non-resistant plants (scores 68-100))
